Patent US20260217835

Tests used:
Assay in all cases: SEC area ratio of heteromultimer after coexpression of full-length heavy chain, light chain and Fc fragment in Expi293F
[1] = target: T1, IgG1 Fc fragment with CH3 modification K392L/T394W/F405A/Y407V (SEQ ID NO: 70)
T1 chain: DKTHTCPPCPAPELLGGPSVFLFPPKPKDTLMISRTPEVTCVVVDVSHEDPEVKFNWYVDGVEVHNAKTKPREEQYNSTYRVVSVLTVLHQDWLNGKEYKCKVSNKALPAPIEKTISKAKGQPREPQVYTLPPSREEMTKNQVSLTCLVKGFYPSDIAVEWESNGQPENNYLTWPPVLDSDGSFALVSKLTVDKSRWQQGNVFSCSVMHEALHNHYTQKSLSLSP

[2] = target: IgG1 Fc fragment, WT (no CH3 modification), SEQ ID NO: 63 in Table 5
[3] = target: T2, IgG1 Fc fragment with CH3 modification Q347E/S354Y/T366Y/Y407T (SEQ ID NO: 69)
T2 chain: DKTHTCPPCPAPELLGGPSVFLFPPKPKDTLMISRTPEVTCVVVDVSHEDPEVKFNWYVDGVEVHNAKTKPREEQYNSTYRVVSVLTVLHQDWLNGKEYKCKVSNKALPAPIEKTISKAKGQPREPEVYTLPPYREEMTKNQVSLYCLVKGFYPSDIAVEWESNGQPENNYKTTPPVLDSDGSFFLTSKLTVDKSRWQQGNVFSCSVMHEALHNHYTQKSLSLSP

[4] = target: IgG1 Fc fragment with CH3 modification T394W/F405A (SEQ ID NO: 64)
[5] = target: IgG1 Fc fragment with CH3 modification T394F/F405A (SEQ ID NO: 67)
[6] = target: T3, IgG1 Fc fragment with CH3 modification E345R/K360E/D399M/Y407A/K409V (SEQ ID NO: 76)
T3 chain: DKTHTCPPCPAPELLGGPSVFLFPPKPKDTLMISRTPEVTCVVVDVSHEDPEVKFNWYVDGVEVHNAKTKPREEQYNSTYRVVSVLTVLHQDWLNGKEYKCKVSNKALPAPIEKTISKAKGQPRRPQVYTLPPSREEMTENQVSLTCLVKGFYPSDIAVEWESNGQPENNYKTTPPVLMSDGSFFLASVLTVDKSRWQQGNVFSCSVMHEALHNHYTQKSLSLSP

B1: full-length IgG heavy chain with CH3 modification Y349C/E357C/K392D/D399K (SEQ ID NO: 51), coexpressed with light chain SEQ ID NO: 61 (protein)
chain 1: QVQLQESGPGLVRPSQTLSLTCTVSGYSITSDHAWSWVRQPPGRGLEWIGYISYSGITTYNPSLKSRVTMLRDTSKNQFSLRLSSVTAADTAVYYCARSLARTTAMDYWGQGSLVTVSSASTKGPSVFPLAPSSKSTSGGTAALGCLVKDYFPEPVTVSWNSGALTSGVHTFPAVLQSSGLYSLSSVVTVPSSSLGTQTYICNVNHKPSNTKVDKRVEPKSCDKTHTCPPCPAPELLGGPSVFLFPPKPKDTLMISRTPEVTCVVVDVSHEDPEVKFNWYVDGVEVHNAKTKPREEQYNSTYRVVSVLTVLHQDWLNGKEYKCKVSNKALPAPIEKTISKAKGQPREPQVCTLPPSRECMTKNQVSLTCLVKGFYPSDIAVEWESNGQPENNYDTTPPVLKSDGSFFLYSKLTVDKSRWQQGNVFSCSVMHEALHNHYTQKSLSLSP
chain 2: not shown
Work on B1 yielded a heterodimer formation ratio (%) [1] of 0%, a heterodimer formation ratio (%) [2] of 0% and a heterodimer formation ratio (%) [3] of 0%. It also gave a heterodimer formation ratio (%) [4] of 0%, a heterodimer formation ratio (%) [5] of 0% and a heterodimer formation ratio (%) [6] of 0%.

B2: full-length IgG heavy chain with CH3 modification E345R/Q347R/K360D/T366V/D399M/Y407A/K409V (SEQ ID NO: 55), coexpressed with light chain SEQ ID NO: 61 (protein)
chain 1: QVQLQESGPGLVRPSQTLSLTCTVSGYSITSDHAWSWVRQPPGRGLEWIGYISYSGITTYNPSLKSRVTMLRDTSKNQFSLRLSSVTAADTAVYYCARSLARTTAMDYWGQGSLVTVSSASTKGPSVFPLAPSSKSTSGGTAALGCLVKDYFPEPVTVSWNSGALTSGVHTFPAVLQSSGLYSLSSVVTVPSSSLGTQTYICNVNHKPSNTKVDKRVEPKSCDKTHTCPPCPAPELLGGPSVFLFPPKPKDTLMISRTPEVTCVVVDVSHEDPEVKFNWYVDGVEVHNAKTKPREEQYNSTYRVVSVLTVLHQDWLNGKEYKCKVSNKALPAPIEKTISKAKGQPRRPRVYTLPPSREEMTDNQVSLVCLVKGFYPSDIAVEWESNGQPENNYKTTPPVLMSDGSFFLASVLTVDKSRWQQGNVFSCSVMHEALHNHYTQKSLSLSP
chain 2: not shown
B2 gave a heterodimer formation ratio (%) [1] of 0%, a heterodimer formation ratio (%) [2] of 0% and a heterodimer formation ratio (%) [3] of 0%. It also gave a heterodimer formation ratio (%) [4] of 0%, a heterodimer formation ratio (%) [5] of 0% and a heterodimer formation ratio (%) [6] of 49%.

B3: full-length IgG heavy chain with CH3 modification T350V/L351Y/T366L/K392L/T394W/F405A/Y407V (SEQ ID NO: 60), coexpressed with light chain SEQ ID NO: 61 (protein)
chain 1: QVQLQESGPGLVRPSQTLSLTCTVSGYSITSDHAWSWVRQPPGRGLEWIGYISYSGITTYNPSLKSRVTMLRDTSKNQFSLRLSSVTAADTAVYYCARSLARTTAMDYWGQGSLVTVSSASTKGPSVFPLAPSSKSTSGGTAALGCLVKDYFPEPVTVSWNSGALTSGVHTFPAVLQSSGLYSLSSVVTVPSSSLGTQTYICNVNHKPSNTKVDKRVEPKSCDKTHTCPPCPAPELLGGPSVFLFPPKPKDTLMISRTPEVTCVVVDVSHEDPEVKFNWYVDGVEVHNAKTKPREEQYNSTYRVVSVLTVLHQDWLNGKEYKCKVSNKALPAPIEKTISKAKGQPREPQVYVYPPSREEMTKNQVSLLCLVKGFYPSDIAVEWESNGQPENNYLTWPPVLDSDGSFALVSKLTVDKSRWQQGNVFSCSVMHEALHNHYTQKSLSLSP
chain 2: not shown
B3 was tested, and the heterodimer formation ratio (%) [1] was 66%, the heterodimer formation ratio (%) [2] was 0% and the heterodimer formation ratio (%) [3] was 0%. It also gave a heterodimer formation ratio (%) [4] of 6%, a heterodimer formation ratio (%) [5] of 4% and a heterodimer formation ratio (%) [6] of 0%.

B4: full-length IgG heavy chain with CH3 modification E345R/K360E/D399M/Y407A/K409V (SEQ ID NO: 58), coexpressed with light chain SEQ ID NO: 61 (protein)
chain 1: QVQLQESGPGLVRPSQTLSLTCTVSGYSITSDHAWSWVRQPPGRGLEWIGYISYSGITTYNPSLKSRVTMLRDTSKNQFSLRLSSVTAADTAVYYCARSLARTTAMDYWGQGSLVTVSSASTKGPSVFPLAPSSKSTSGGTAALGCLVKDYFPEPVTVSWNSGALTSGVHTFPAVLQSSGLYSLSSVVTVPSSSLGTQTYICNVNHKPSNTKVDKRVEPKSCDKTHTCPPCPAPELLGGPSVFLFPPKPKDTLMISRTPEVTCVVVDVSHEDPEVKFNWYVDGVEVHNAKTKPREEQYNSTYRVVSVLTVLHQDWLNGKEYKCKVSNKALPAPIEKTISKAKGQPRRPQVYTLPPSREEMTENQVSLTCLVKGFYPSDIAVEWESNGQPENNYKTTPPVLMSDGSFFLASVLTVDKSRWQQGNVFSCSVMHEALHNHYTQKSLSLSP
chain 2: not shown
B4 gave a heterodimer formation ratio (%) [1] of 0%, a heterodimer formation ratio (%) [2] of 0% and a heterodimer formation ratio (%) [3] of 0%. The heterodimer formation ratio (%) [4] was 0%, the heterodimer formation ratio (%) [5] was 0% and the heterodimer formation ratio (%) [6] was 51%.

B5: full-length IgG heavy chain with CH3 modification E356K/K392D/D399K/K409D (SEQ ID NO: 56), coexpressed with light chain SEQ ID NO: 61 (protein)
chain 1: QVQLQESGPGLVRPSQTLSLTCTVSGYSITSDHAWSWVRQPPGRGLEWIGYISYSGITTYNPSLKSRVTMLRDTSKNQFSLRLSSVTAADTAVYYCARSLARTTAMDYWGQGSLVTVSSASTKGPSVFPLAPSSKSTSGGTAALGCLVKDYFPEPVTVSWNSGALTSGVHTFPAVLQSSGLYSLSSVVTVPSSSLGTQTYICNVNHKPSNTKVDKRVEPKSCDKTHTCPPCPAPELLGGPSVFLFPPKPKDTLMISRTPEVTCVVVDVSHEDPEVKFNWYVDGVEVHNAKTKPREEQYNSTYRVVSVLTVLHQDWLNGKEYKCKVSNKALPAPIEKTISKAKGQPREPQVYTLPPSRKEMTKNQVSLTCLVKGFYPSDIAVEWESNGQPENNYDTTPPVLKSDGSFFLYSDLTVDKSRWQQGNVFSCSVMHEALHNHYTQKSLSLSP
chain 2: not shown
B5 was tested, and the heterodimer formation ratio (%) [1] was 0%, the heterodimer formation ratio (%) [2] was 0% and the heterodimer formation ratio (%) [3] was 0%. The heterodimer formation ratio (%) [4] was 0%, the heterodimer formation ratio (%) [5] was 0% and the heterodimer formation ratio (%) [6] was 0%.
